Tests used:
human iC3b [1] = target: T1, human iC3b (human, UniProt P01024 23-667; P01024 749-1303; P01024 1321-1663); assay: sandwich ELISA: chicken anti-C3 capture antibody on the plate, iC3b captured, A209 as detecting antibody, goat anti-mouse-HRP, ABTS
T1 construct: Bought purified protein; three chains held together by disulfide bonds; also called purified human iC3b (Complement Technology #A115)

human iC3b [2] = target: T1, human iC3b; assay: Biacore, antibody captured on anti-mouse CM5 chip, antigen in solution
human C3 = target: T2, human C3 (human, UniProt P01024 23-667; P01024 672-1663); assay: as above
T2 construct: Bought purified protein; also called C3 (Complement Technology #A113)
T2 sequence (P01024 23-667, chain 1 of 2): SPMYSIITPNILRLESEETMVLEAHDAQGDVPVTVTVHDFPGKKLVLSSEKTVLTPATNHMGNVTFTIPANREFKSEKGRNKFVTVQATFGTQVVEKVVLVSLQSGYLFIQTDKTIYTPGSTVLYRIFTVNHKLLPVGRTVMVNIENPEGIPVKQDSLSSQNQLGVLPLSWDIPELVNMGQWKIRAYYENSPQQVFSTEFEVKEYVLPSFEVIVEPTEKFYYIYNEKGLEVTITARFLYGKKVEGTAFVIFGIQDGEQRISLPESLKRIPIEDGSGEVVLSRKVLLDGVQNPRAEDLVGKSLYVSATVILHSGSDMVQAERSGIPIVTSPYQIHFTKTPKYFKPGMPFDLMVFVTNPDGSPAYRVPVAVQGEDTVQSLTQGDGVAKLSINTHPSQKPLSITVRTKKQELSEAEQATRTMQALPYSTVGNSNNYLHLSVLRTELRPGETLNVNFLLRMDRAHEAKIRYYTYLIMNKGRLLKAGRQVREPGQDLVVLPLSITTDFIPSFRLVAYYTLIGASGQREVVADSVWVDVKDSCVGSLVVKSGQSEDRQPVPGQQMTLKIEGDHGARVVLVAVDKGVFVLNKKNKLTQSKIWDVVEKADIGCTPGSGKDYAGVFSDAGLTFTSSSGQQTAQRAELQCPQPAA
T2 sequence (P01024 672-1663, chain 2 of 2): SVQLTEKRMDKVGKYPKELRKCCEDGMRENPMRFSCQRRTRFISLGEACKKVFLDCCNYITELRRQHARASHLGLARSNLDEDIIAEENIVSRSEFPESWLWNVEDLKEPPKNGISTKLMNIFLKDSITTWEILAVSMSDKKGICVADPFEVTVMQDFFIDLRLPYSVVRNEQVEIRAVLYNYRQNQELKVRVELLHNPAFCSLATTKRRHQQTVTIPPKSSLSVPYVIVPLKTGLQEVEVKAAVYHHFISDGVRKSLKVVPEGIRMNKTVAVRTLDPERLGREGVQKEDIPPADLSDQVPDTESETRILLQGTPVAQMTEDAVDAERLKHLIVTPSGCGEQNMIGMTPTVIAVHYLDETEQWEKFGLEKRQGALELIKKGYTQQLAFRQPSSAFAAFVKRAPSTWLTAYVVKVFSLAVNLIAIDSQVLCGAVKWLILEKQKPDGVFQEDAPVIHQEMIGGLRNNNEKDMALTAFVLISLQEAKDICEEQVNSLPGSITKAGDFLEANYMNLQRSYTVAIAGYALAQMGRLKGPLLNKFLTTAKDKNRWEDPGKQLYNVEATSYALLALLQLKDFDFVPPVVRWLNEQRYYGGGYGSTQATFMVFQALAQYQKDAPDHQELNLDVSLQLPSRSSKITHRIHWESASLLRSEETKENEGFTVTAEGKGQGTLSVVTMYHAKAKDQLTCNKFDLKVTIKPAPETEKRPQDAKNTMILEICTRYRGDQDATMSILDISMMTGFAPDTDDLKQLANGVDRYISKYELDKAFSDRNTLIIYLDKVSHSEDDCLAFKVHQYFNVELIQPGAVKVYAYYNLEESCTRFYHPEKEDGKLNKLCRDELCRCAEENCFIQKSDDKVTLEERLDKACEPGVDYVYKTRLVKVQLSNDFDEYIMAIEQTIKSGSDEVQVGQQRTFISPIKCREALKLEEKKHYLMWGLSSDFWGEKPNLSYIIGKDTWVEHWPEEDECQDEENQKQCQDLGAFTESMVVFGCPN

human iC3b [3] = target: T1, human iC3b; assay: sandwich ELISA; reference C3b
human iC3b [4] = target: T1, human iC3b; assay: Biacore, antibody captured on anti-mouse CM5 chip
human iC3b [5] = target: T1, human iC3b; assay: Biacore (SPR); reference C3b
human iC3b [6] = target: T1, human iC3b; assay: sandwich ELISA, antigen captured by chicken anti-C3 antibody

T1 sequence (P01024 23-667 limits assumed, chain 1 of 3): as the sequence (P01024 23-667, chain 1 of 2) above
T1 sequence (P01024 749-1303 limits assumed, chain 2 of 3): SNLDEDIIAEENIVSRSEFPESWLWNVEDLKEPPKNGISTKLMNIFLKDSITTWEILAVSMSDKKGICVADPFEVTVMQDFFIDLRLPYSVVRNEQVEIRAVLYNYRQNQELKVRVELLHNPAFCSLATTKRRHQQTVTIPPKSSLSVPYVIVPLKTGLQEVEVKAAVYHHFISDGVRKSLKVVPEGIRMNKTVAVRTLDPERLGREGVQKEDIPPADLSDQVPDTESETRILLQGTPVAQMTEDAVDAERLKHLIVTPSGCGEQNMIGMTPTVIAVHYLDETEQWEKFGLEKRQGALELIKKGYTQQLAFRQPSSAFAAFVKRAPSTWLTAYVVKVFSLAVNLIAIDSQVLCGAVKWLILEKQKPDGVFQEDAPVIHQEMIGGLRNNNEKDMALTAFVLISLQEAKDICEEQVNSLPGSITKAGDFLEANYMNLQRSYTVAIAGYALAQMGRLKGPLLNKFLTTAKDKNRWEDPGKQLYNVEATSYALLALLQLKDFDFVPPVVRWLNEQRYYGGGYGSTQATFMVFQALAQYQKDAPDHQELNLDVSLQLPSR
T1 sequence (P01024 1321-1663 limits assumed, chain 3 of 3): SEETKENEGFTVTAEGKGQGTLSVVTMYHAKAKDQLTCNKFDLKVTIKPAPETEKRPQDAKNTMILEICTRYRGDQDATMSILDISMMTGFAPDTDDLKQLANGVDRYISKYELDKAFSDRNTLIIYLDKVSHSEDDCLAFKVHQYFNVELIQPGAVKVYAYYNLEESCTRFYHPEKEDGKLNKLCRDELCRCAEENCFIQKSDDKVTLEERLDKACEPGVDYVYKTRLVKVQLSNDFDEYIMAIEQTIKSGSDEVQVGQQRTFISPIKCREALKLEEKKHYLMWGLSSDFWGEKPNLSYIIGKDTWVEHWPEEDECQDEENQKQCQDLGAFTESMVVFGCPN

| EC50 (read off the curve) (human iC3b [1]) | Kd (human iC3b [2]) | Kd (human C3) | fold higher affinity constant for iC3b than C3b (human iC3b [3]) | fold difference in KD, iC3b relative to C3 (human iC3b [4]) | fold higher affinity constant for iC3b than C3b (human iC3b [5]) | fold specificity for iC3b vs. C3 or C3b (human iC3b [6]) | Molecule |
| --- | --- | --- | --- | --- | --- | --- | --- |
| 0.03 µg/mL | – | – | – | – | – | – | A209 antibody (Quidel) |
| – | 43.3 nM | 2100 nM | ≥ 2 fold | > 10 fold | ≥ 10 fold | > 2 fold | mouse monoclonal antibody 6G1 (antibody, V domains shown) VH: QIQLVQSGPELKKPGETVKISCKASGYTFTNYGMNWVKQAPGKDLKWMGWINTYTGEPRYADEFKGRFAFSLETSASTAYLQINNLKNEDMATYFCAKGGYPHYYSMDYWGQGTSVTVSS VL: DIQMTQSTSSLSASLGDRVTISCRASQDINNYLNWYQQKPDGTIKLLIYYTSKLHSGVPSRFSGSGSGRDYSLTISNLEQEDIATYFCQQGNTLPRTFGGGTKLEIKR |
| – | – | – | ≥ 2 fold | – | ≥ 10 fold | > 2 fold | mouse monoclonal antibody 5D2 (antibody, V domains shown) VH: EVQLQQSGPELVKPGASVKISCKASGYTFTDNYYMNWVKQSHGKSLEWIGHIYPNNGVTSYNQKFRGKATLTVDKSSNSAYMELRSLTSEDSALYYCARNKLLSLYWYFDVWGTGTSVTVSS VL: DIQMTQSSSSFSVFLGDRITITCRASVDIYNRLAWFQQKPGNAPRLLISGATSLATGVPSRFSGSGSGKDYTLSITSLQTEDVTIYYCQQYWSTPWTFGGGTKLEIKR |
